Patent publication US20150284431A1
Square brackets hold non-standard residues; d marks the D form. * marks the point of attachment. Butanoyl(4-Ph) = O=C(CCCc1ccccc1)*; Butanoyl(4-ethynyl) = C#CCCCC(=O)*

Legend:
[1] = molecular target: human melanocortin 1 receptor (human) (UniProt Q01726); assay: competition with Eu-NDP-alpha-MSH, Eu time-resolved fluorescence, HCT116/hMC1R cells; concentration normalized to the targeting group
[2] = molecular target: human melanocortin 1 receptor (human) (UniProt Q01726); assay: competition with Eu-NDP-alpha-MSH, time-resolved fluorescence; 10% ligand loading

Chain of human melanocortin 1 receptor (human) (Q01726 whole entry): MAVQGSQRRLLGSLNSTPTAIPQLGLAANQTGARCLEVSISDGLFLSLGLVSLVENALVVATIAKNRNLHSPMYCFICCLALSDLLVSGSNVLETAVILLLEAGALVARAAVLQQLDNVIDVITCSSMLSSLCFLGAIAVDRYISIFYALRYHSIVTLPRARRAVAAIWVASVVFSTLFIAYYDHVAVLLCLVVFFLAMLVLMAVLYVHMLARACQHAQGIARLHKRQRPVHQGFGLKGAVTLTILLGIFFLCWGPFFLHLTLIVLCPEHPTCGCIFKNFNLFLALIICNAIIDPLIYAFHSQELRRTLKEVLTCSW

B1: 4-targeted micelles (peptide, part only; not given: triblock polymer carrier, part only)
peptide: HFRWGK
modifications: not fully specified; N-terminal 4-phenylbutyryl; DPhe at 2; Lys(hex-5-ynoyl) at 6 joined by a 1,2,3-triazole to the PEG block of the triblock polymer; C-terminal amide
- Ki [1]: 11.5 nM

B2: 4-targeted triblock polymer (peptide, part only; not given: triblock polymer, part only)
peptide: HFRWGK
modifications: N-terminal 4-phenylbutyryl; DPhe at 2; Lys(hex-5-ynoyl) at 6 joined by a 1,2,3-triazole (click reaction) to the azide end of the PEG block of the triblock polymer; C-terminal amide
- Ki [1]: 25.6 nM

B3: 4-targeted crosslinked (XL) micelle (peptide, part only; not given: crosslinked triblock polymer carrier, part only)
peptide: {Butanoyl(4-Ph)}-H[dF]RWGK(Butanoyl(4-ethynyl))-NH2
modifications: also: micelle crosslinked with Fe(III), triblock polymer block lengths not given here
- Ki [2]: 2.9 nM

Binder: {Butanoyl(4-Ph)}-H[dF]RWGK(Butanoyl(4-ethynyl))-NH2 (peptide, part only; not given: triblock polymer carrier, part only, also: micelle not crosslinked, triblock polymer block lengths not given here) [4-targeted uncrosslinked (UXL) micelle]
- Ki [2]: 12 nM
